Reference: patent publication US20050282739A1 (PALATIN TECHNOLOGIES, published 2005)
Square brackets hold non-standard residues; d marks the D form. Ends that are not written are not given here. Nle = CCCC[C@H](N)C(=O)O

B1: metallopeptide 3-11 (peptide)
peptide: YVC[Nle]GH[dF]RWDRF-NH2
modifications: bridge (positions not given here); not fully specified (bridges); printed as Tyr-Val-Cys-Nle-Gly-His-D-Phe-Arg-Trp-Asp-Arg-Phe-NH2.; also: oxorhenium(V) N3S1 complex
B2: metallopeptide 3-4 (peptide)
peptide: YV[Nle]GH[dF]RWCDRF-NH2
modifications: not fully specified (bridges); printed as Tyr-Val-Nle-Gly-His-D-Phe-Arg-Trp-Cys-Asp-Arg-Phe-NH2; also: oxorhenium(V) N3S1 chelate (backbone N of R7, W8, C9 and C9 S)
B3: metallopeptide 3-9 (peptide)
peptide: YV[Nle]GCH[dF]RWDRF-NH2
modifications: also: oxorhenium(V) N3S1 chelate: C5 SG + backbone N of X3, G4, C5, bridge at 5 via Re(V)=O, other end not in the chain
B4: metallopeptide 3-6 (peptide)
peptide: YV[Nle]GH[dF]CRWDRF-NH2
modifications: not fully specified (bridges); printed as Tyr-Val-Nle-Gly-His-D-Phe-Cys-Arg-Trp-Asp-Arg-Phe-NH2; also: bridge at 7 via Re(V)=O, other end not in the chain
B5: metallopeptide 3-3 (peptide)
peptide: YV[Nle]GH[dF]RWDCRF-NH2
modifications: not fully specified (bridges); printed as Tyr-Val-Nle-Gly-His-D-Phe-Arg-Trp-Asp-Cys-Arg-Phe-NH2; also: oxorhenium(V) N3S1 chelate (backbone N of W8, D9, C10 and C10 S)
B6: metallopeptide 3-2 (peptide)
peptide: YV[Nle]GH[dF]RWDRCF-NH2
modifications: not fully specified (bridges); printed as Tyr-Val-Nle-Gly-His-D-Phe-Arg-Trp-Asp-Arg-Cys-Phe-NH2; also: oxorhenium(V) N3S1 chelate (backbone N of D9, R10, C11 and C11 S)
B7: metallopeptide 3-5 (peptide)
peptide: YV[Nle]GH[dF]RCWDRF-NH2
modifications: not fully specified (bridges); printed as Tyr-Val-Nle-Gly-His-D-Phe-Arg-Cys-Trp-Asp-Arg-Phe-NH2; also: bridge at 8 via Re(V)=O, other end not in the chain
B8: metallopeptide 5-1 (peptide)
peptide: YV[Nle]GH[dF]RWDRC-NH2
modifications: also: oxorhenium(V) N3S1 chelate: C11 SG + backbone N of D9, R10, C11, bridge at 11 via Re(V)=O, other end not in the chain

molecular target: T1, melanocortin-1 receptor (MC1-R) of B-16 mouse melanoma cells (mouse, UniProt Q01727 1-315); test: 125I-NDP-α-MSH competition, B-16 membranes
T1 construct: whole, on cells; membranes prepared from the cells were used; also called Melanocortin Receptor 1
Description: (§1) The competitive inhibition binding assay was conducted using membranes prepared from hMC3-R, hMC4-R, hMC5-R, and B-16 mouse melanoma cells (containing MC1-R) using 0.4 nM ¹²⁵I-NDP-alpha-MSH (New England Nuclear, Boston, Mass., USA) in 50 mM HEPES buffer containing 1 mM MgCl₂, 2 mM CaCl₂, and 5 mM KCl, at pH 7.2. […] Incubation was for 90 minutes at room temperature, after which the assay mixture was filtered and the membranes washed three times with ice cold buffer. The filter was dried and counted in a gamma counter for remaining radioactivity bound to the membranes. 100% specific binding was defined as the difference in radioactivity (cpm) bound to cell membranes in the absence and presence of 1 μM α-MSH. […] Each assay was conducted in triplicate and the actual mean valves are described.

T1 sequence (Q01727 whole entry): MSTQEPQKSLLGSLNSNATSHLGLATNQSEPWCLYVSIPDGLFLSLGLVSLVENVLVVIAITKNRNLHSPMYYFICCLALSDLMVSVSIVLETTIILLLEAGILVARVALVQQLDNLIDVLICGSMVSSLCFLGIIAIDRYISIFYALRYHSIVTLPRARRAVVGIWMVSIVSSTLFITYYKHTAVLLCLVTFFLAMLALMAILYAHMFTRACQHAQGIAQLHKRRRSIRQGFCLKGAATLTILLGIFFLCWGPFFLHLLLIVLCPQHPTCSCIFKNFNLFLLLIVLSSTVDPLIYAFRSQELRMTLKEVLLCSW

Row | Binder | % Inhibition at 1 µM
1 | Ac-SYS[Nle]ECHFRWGKPV-NH2 (also: oxorhenium(V) N3S1 chelate at Cys6) [metallopeptide 1-9] | 74%
2 | Ac-SYS[Nle]EHFRWGKGVC-NH2 (not fully specified; also: oxorhenium(V) N3S1 chelate at Cys14) [metallopeptide 1-1] | 95%
3 | Ac-SYSC[Nle]EHFRWGKPV-NH2 (also: oxorhenium(V) N3S1 chelate at Cys4) [metallopeptide 1-11] | 95%
4 | Ac-SYS[Nle]EHFRWCGKPV-NH2 (also: oxorhenium(V) N3S1 chelate at Cys10) [metallopeptide 1-5] | 57%
5 | Ac-SYS[Nle]CEHFRWGKPV-NH2 (also: oxorhenium(V) N3S1 chelate at Cys5) [metallopeptide 1-10] | 72%
6 | Ac-SYS[Nle]EHFRCWGKPV-NH2 (also: oxorhenium(V) N3S1 chelate at Cys9) [metallopeptide 1-6] | 29%
7 | Ac-SYS[Nle]EHFRWGKGCV-NH2 (also: oxorhenium(V) N3S1 chelate at Cys13) [metallopeptide 1-2] | 87%
8 | Ac-SYS[Nle]EHFRWGKCPV-NH2 (also: oxorhenium(V) N3S1 chelate at Cys12) [metallopeptide 1-3] | 87%
9 | Ac-SYCS[Nle]EHFRWGKPV-NH2 (also: oxorhenium(V) N3S1 chelate at Cys3) [metallopeptide 1-12] | 96%
10 | Ac-SYS[Nle]EHFCRWGKPV-NH2 (also: oxorhenium(V) N3S1 chelate at Cys8) [metallopeptide 1-7] | 68%

molecular target: T1, melanocortin-1 receptor (MC1-R) of B-16 …; test: 125I-NDP-α-MSH competition, B-16 membranes; remark: another data set of the same source
Description: as §1
(§2) The first unnumbered peptide in Table 3 is the parent polypeptide, which is a Nle³, D-Phe⁶ substituted γ-MSH analog specific for melanocortin receptors. The methods and assays set forth in Example 1 were followed.

Row | Binder | % Inhibition at 1 µM
11 | YVXGHFRWDRFC (Nle 3 (X in letters); D-Phe 6; C-terminal amide; Re complexed at Cys 12) [metallopeptide 3-1] | 95%
12 | B1 | 95%
13 | B2 | 98%
14 | B3 | 77%
15 | YV[Nle]CGH[dF]RWDRF-NH2 (also: Re(V)=O N3S1 chelate via V2 N, Nle3 N, Cys4 N and S (ReOCl3(PPh3)2)) [metallopeptide 3-10] | 84%
16 | B4 | 52%
17 | B5 | 99%
18 | B6 | 99%
19 | B7 | 83%

molecular target: T1, melanocortin-1 receptor (MC1-R) of B-16 …; test: 125I-NDP-α-MSH competition, B-16 membranes; remark: another data set of the same source
Description: as §1
(§3) The first unnumbered peptide in Table 5 is the parent polypeptide, which is a γ-MSH analog specific for melanocortin receptors. The methods and assays set forth in Example 1 were followed.

Row | Binder | % Inhibition at 1 µM
20 | B8 | 101%

molecular target: T2, human melanocortin-3 receptor (hMC3-R) (human, UniProt P41968 1-323); test: 125I-NDP-α-MSH competition, hMC3-R membranes
T2 construct: whole, on cells; membranes prepared from hMC3-R cells were used; also called Melanocortin Receptor 3
Description: as §1

T2 sequence (P41968 whole entry): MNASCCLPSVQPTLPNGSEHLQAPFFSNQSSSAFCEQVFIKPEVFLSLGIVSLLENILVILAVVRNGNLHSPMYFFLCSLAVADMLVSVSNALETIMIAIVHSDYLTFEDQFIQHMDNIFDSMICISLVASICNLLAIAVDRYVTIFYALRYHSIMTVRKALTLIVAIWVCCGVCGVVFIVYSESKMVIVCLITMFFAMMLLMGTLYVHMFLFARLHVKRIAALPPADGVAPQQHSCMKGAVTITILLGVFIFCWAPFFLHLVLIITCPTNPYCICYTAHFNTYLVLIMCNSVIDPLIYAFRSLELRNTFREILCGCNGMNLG

Row | Binder | % Inhibition at 1 µM
21 | Ac-SYS[Nle]ECHFRWGKPV-NH2 (also: oxorhenium(V) N3S1 chelate at Cys6) [metallopeptide 1-9] | 0%
22 | Ac-SYS[Nle]EHFRWGKGVC-NH2 (not fully specified; also: oxorhenium(V) N3S1 chelate at Cys14) [metallopeptide 1-1] | 48%
23 | Ac-SYSC[Nle]EHFRWGKPV-NH2 (also: oxorhenium(V) N3S1 chelate at Cys4) [metallopeptide 1-11] | 18%
24 | Ac-SYS[Nle]EHFRWCGKPV-NH2 (also: oxorhenium(V) N3S1 chelate at Cys10) [metallopeptide 1-5] | 0%
25 | Ac-SYS[Nle]CEHFRWGKPV-NH2 (also: oxorhenium(V) N3S1 chelate at Cys5) [metallopeptide 1-10] | 0%
26 | Ac-SYS[Nle]EHFRCWGKPV-NH2 (also: oxorhenium(V) N3S1 chelate at Cys9) [metallopeptide 1-6] | 0%
27 | Ac-SYS[Nle]EHFRWGKCPV-NH2 (also: oxorhenium(V) N3S1 chelate at Cys12) [metallopeptide 1-3] | 0%
28 | Ac-SYCS[Nle]EHFRWGKPV-NH2 (also: oxorhenium(V) N3S1 chelate at Cys3) [metallopeptide 1-12] | 15%
29 | Ac-SYS[Nle]EHFCRWGKPV-NH2 (also: oxorhenium(V) N3S1 chelate at Cys8) [metallopeptide 1-7] | 0%

molecular target: T3, human melanocortin-4 receptor (hMC4-R) (human, UniProt P32245 1-332); test: 125I-NDP-α-MSH competition, hMC4-R membranes
T3 construct: whole, on cells; membranes prepared from hMC4-R cells were used; also called Melanocortin Receptor 4
Description: as §1

T3 sequence (P32245 whole entry): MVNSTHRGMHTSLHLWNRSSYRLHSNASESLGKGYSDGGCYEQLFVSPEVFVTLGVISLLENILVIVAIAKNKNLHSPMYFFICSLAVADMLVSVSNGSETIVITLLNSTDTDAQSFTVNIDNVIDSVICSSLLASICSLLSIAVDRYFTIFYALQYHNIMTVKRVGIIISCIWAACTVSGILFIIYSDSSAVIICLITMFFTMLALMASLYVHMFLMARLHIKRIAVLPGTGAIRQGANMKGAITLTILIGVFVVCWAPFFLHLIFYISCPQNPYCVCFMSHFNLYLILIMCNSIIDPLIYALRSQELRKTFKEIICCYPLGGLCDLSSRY

Row | Binder | % Inhibition at 1 µM
30 | Ac-SYS[Nle]EHFRWGKGVC-NH2 (not fully specified; also: oxorhenium(V) N3S1 chelate at Cys14) [metallopeptide 1-1] | 63%
31 | Ac-SYSC[Nle]EHFRWGKPV-NH2 (also: oxorhenium(V) N3S1 chelate at Cys4) [metallopeptide 1-11] | 21%
32 | Ac-SYS[Nle]EHFRWCGKPV-NH2 (also: oxorhenium(V) N3S1 chelate at Cys10) [metallopeptide 1-5] | 0%
33 | Ac-SYS[Nle]EHFRCWGKPV-NH2 (also: oxorhenium(V) N3S1 chelate at Cys9) [metallopeptide 1-6] | 0%
34 | Ac-SYS[Nle]EHFRWGKGCV-NH2 (also: oxorhenium(V) N3S1 chelate at Cys13) [metallopeptide 1-2] | 0%
35 | Ac-SYS[Nle]EHFRWGKCPV-NH2 (also: oxorhenium(V) N3S1 chelate at Cys12) [metallopeptide 1-3] | 0%
36 | Ac-SYCS[Nle]EHFRWGKPV-NH2 (also: oxorhenium(V) N3S1 chelate at Cys3) [metallopeptide 1-12] | 26%
37 | Ac-SYS[Nle]EHFCRWGKPV-NH2 (also: oxorhenium(V) N3S1 chelate at Cys8) [metallopeptide 1-7] | 0%

molecular target: T4, human melanocortin-5 receptor (hMC5-R) (human, UniProt P33032 1-325); test: 125I-NDP-α-MSH competition, hMC5-R membranes
T4 construct: whole, on cells; membranes prepared from hMC5-R cells were used; also called Melanocortin Receptor 5
Description: as §1

T4 sequence (P33032 whole entry): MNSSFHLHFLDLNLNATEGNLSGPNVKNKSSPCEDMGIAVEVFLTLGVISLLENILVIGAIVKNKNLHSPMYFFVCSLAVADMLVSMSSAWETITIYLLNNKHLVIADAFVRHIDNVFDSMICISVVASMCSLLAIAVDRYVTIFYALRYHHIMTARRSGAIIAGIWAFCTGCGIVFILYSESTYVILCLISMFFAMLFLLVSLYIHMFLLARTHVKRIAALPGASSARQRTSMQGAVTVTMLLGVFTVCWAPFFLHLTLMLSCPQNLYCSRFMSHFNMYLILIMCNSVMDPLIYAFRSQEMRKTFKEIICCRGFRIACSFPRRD

Row | Binder | % Inhibition at 1 µM
38 | Ac-SYS[Nle]ECHFRWGKPV-NH2 (also: oxorhenium(V) N3S1 chelate at Cys6) [metallopeptide 1-9] | 6%
39 | Ac-SYS[Nle]EHFRWGKGVC-NH2 (not fully specified; also: oxorhenium(V) N3S1 chelate at Cys14) [metallopeptide 1-1] | 68%
40 | Ac-SYSC[Nle]EHFRWGKPV-NH2 (also: oxorhenium(V) N3S1 chelate at Cys4) [metallopeptide 1-11] | 6%
41 | Ac-SYS[Nle]EHFRWCGKPV-NH2 (also: oxorhenium(V) N3S1 chelate at Cys10) [metallopeptide 1-5] | 0%
42 | Ac-SYS[Nle]CEHFRWGKPV-NH2 (also: oxorhenium(V) N3S1 chelate at Cys5) [metallopeptide 1-10] | 5%
43 | Ac-SYS[Nle]EHFRCWGKPV-NH2 (also: oxorhenium(V) N3S1 chelate at Cys9) [metallopeptide 1-6] | 0%
44 | Ac-SYS[Nle]EHFRWGKGCV-NH2 (also: oxorhenium(V) N3S1 chelate at Cys13) [metallopeptide 1-2] | 37%
45 | Ac-SYS[Nle]EHFRWGKCPV-NH2 (also: oxorhenium(V) N3S1 chelate at Cys12) [metallopeptide 1-3] | 12%
46 | Ac-SYCS[Nle]EHFRWGKPV-NH2 (also: oxorhenium(V) N3S1 chelate at Cys3) [metallopeptide 1-12] | 19%
47 | Ac-SYS[Nle]EHFCRWGKPV-NH2 (also: oxorhenium(V) N3S1 chelate at Cys8) [metallopeptide 1-7] | 0%

molecular target: T2, human melanocortin-3 receptor (hMC3-R); test: 125I-NDP-α-MSH competition, hMC3-R membranes; remark: another data set of the same source
Description: as §1, §2

Row | Binder | % Inhibition at 1 µM
48 | YVXGHFRWDRFC (Nle 3 (X in letters); D-Phe 6; C-terminal amide; Re complexed at Cys 12) [metallopeptide 3-1] | 96%
49 | B1 | 85%
50 | B2 | 88%
51 | B3 | 69%
52 | YV[Nle]CGH[dF]RWDRF-NH2 (also: Re(V)=O N3S1 chelate via V2 N, Nle3 N, Cys4 N and S (ReOCl3(PPh3)2)) [metallopeptide 3-10] | 78%
53 | B4 | 20%
54 | B5 | 95%
55 | B6 | 91%
56 | B7 | 45%

molecular target: T3, human melanocortin-4 receptor (hMC4-R); test: 125I-NDP-α-MSH competition, hMC4-R membranes; remark: another data set of the same source
Description: as §1, §2

Row | Binder | % Inhibition at 1 µM
57 | YVXGHFRWDRFC (Nle 3 (X in letters); D-Phe 6; C-terminal amide; Re complexed at Cys 12) [metallopeptide 3-1] | 98%
58 | B1 | 82%
59 | B2 | 94%
60 | B3 | 55%
61 | YV[Nle]CGH[dF]RWDRF-NH2 (also: Re(V)=O N3S1 chelate via V2 N, Nle3 N, Cys4 N and S (ReOCl3(PPh3)2)) [metallopeptide 3-10] | 80%
62 | B4 | 31%
63 | B5 | 99%
64 | B6 | 89%
65 | B7 | 33%

molecular target: T4, human melanocortin-5 receptor (hMC5-R); test: 125I-NDP-α-MSH competition, hMC5-R membranes; remark: another data set of the same source
Description: as §1, §2

Row | Binder | % Inhibition at 1 µM
66 | YVXGHFRWDRFC (Nle 3 (X in letters); D-Phe 6; C-terminal amide; Re complexed at Cys 12) [metallopeptide 3-1] | 102%
67 | B1 | 92%
68 | B2 | 100%
69 | B3 | 67%
70 | YV[Nle]CGH[dF]RWDRF-NH2 (also: Re(V)=O N3S1 chelate via V2 N, Nle3 N, Cys4 N and S (ReOCl3(PPh3)2)) [metallopeptide 3-10] | 86%
71 | B4 | 31%
72 | B5 | 99%
73 | B6 | 100%
74 | B7 | 81%

molecular target: T2, human melanocortin-3 receptor (hMC3-R); test: 125I-NDP-α-MSH competition, hMC3-R membranes; remark: another data set of the same source
Description: as §1, §3

Row | Binder | % Inhibition at 1 µM
75 | B8 | 92%

molecular target: T3, human melanocortin-4 receptor (hMC4-R); test: 125I-NDP-α-MSH competition, hMC4-R membranes; remark: another data set of the same source
Description: as §1, §3

Row | Binder | % Inhibition at 1 µM
76 | B8 | 95%

molecular target: T4, human melanocortin-5 receptor (hMC5-R); test: 125I-NDP-α-MSH competition, hMC5-R membranes; remark: another data set of the same source
Description: as §1, §3

Row | Binder | % Inhibition at 1 µM
77 | B8 | 98%
